Measured values from paper PMC5166498 (The Journal of Cell Biology, 2016).

Molecular target: T1, 6×His::UNC-84(912–1,111) (C. elegans, UniProt Q20745 912-1111)
T1 sequence (looked up): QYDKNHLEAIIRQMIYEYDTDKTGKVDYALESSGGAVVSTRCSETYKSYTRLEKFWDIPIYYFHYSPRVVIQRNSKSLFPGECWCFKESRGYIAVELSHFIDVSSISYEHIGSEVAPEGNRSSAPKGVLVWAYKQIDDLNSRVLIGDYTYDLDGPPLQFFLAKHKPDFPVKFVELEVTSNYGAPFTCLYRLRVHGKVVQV
Experiment: SEC

binding result: binds
Binder: ASILVLGFLVFIAWMFININSALNAPPNA (domain or fragment, C. elegans, UniProt Q23529 749-777, looked up) [MBP::ZYG-12(749–777)]
